The results in this text go back to patent US20160031996A1 (CSL, published 2016).

The target in experiment [1] is T1, wild-type human GM-CSFRα (human, UniProt P15509 23-400).
T1 construct: whole, on cells; negative control, on 293F cells; also called GM-CSFRa
T1 sequence (looked up): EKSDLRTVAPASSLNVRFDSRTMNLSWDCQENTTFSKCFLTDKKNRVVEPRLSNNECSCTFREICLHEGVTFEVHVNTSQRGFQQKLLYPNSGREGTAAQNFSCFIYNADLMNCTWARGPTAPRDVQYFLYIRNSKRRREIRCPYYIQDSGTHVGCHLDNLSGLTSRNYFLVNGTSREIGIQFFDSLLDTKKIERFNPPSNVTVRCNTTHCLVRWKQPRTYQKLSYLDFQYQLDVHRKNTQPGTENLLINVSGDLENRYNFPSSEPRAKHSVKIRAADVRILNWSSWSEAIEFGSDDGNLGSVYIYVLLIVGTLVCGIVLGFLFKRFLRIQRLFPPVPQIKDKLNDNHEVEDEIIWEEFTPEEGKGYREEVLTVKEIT
The experiment is described as follows: Western blot, whole cell extracts. (In general: In western blotting, separated proteins are transferred to a membrane and probed.)

Experiment [2] has as its target T2, human IL-3Rα E51Q/S59A double mutant, full length (human, UniProt P26951 19-378).
T2 chain: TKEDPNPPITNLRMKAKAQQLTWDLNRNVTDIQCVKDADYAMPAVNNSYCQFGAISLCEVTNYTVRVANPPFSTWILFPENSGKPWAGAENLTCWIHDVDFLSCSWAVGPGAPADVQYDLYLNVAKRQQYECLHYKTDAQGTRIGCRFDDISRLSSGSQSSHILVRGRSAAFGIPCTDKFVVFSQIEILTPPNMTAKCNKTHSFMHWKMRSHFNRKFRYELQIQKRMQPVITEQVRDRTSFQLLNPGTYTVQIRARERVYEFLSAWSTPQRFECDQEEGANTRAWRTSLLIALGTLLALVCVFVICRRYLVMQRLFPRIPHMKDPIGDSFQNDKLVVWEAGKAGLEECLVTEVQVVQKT
The experiment is described as follows: Western blot after SDS-PAGE of whole cell extracts.

For experiment [3], the target named is T3, human IL-3Rα S59A/P88T double mutant, full length (human, UniProt P26951 19-378).
T3 chain: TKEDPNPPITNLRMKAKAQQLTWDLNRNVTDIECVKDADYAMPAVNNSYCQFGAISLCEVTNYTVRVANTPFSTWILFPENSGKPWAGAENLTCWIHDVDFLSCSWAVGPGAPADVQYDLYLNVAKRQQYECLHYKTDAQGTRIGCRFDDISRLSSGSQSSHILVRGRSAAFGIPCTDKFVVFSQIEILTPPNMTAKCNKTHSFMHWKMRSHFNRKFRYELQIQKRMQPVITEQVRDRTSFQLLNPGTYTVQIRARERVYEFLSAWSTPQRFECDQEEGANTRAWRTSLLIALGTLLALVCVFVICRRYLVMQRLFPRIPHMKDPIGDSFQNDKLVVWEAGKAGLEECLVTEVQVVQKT
The experiment is described as follows: Western blot after SDS-PAGE of whole cell extracts.

The target of experiment [4] is T4, human IL-3Rα E51Q/S59A/P88T triple mutant, full length (human, UniProt P26951 19-378).
T4 chain: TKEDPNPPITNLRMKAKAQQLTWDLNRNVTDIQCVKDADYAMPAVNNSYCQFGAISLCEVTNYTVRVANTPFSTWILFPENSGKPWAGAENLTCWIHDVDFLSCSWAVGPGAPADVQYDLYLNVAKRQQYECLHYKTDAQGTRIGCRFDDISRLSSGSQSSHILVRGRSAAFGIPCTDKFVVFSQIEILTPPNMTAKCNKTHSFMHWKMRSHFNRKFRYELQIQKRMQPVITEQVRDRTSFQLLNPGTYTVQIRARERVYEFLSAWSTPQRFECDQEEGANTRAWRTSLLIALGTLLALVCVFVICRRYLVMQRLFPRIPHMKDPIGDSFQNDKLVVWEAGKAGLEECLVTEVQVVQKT
Nature of the experiment: Western blot after SDS-PAGE of whole cell extracts.

For experiment [5], the target named is T5, full length human IL-3Rα, wild type (human, UniProt P26951 19-378).
T5 construct: expressed in 293F cells; also called WT
T5 sequence: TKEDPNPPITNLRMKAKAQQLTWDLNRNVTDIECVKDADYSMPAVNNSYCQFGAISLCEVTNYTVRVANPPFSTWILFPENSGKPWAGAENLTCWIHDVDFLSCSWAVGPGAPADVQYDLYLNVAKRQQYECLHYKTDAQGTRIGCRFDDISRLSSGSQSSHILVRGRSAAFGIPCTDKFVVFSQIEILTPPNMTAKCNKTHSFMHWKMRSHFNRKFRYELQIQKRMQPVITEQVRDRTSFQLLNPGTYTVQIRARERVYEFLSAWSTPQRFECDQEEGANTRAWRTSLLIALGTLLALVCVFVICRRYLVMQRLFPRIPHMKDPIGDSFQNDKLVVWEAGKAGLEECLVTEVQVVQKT
The experiment is described as follows: flow cytometry, MFI normalised to WT (reference, set as 100%). How it is done: Median fluorescence intensity (MFI) of each antibody was determined for WT IL-3Rα and for each IL-3Rα mutant. The MFI of WT IL-3Rα staining for each antibody was set as 100% then the MFI of each mutant was normalized to a percent of WT staining.
In general terms: Flow cytometry measures light scatter and fluorescence of single cells or particles in a stream.

B1: monoclonal antibody 7G3 (antibody, V domains shown)
VH: EVQLQQSGPELVKPGASVKMSCKASGYTFTDYYMKWVKQSHGKSLEWIGDIIPSNGATFYNQKFKGKATLTVDRSSSTAYMHLNSLTSEDSAVYYCTRSHLLRASWFAYWGQGTLVTVSA
VL: DFVMTQSPSSLTVTAGEKVTMSCKSSQSLLNSGNQKNYLTWYLQKPGQPPKLLIYWASTRESGVPDRFTGSGSGTDFTLTISSVQAEDLAVYYCQNDYSYPYTFGGGTKLEIKR
notes: mouse monoclonal antibody (hybridoma ATCC HB-12009)
Take B1: the binding result in experiment [1], in experiment [2], in experiment [3] and in experiment [4] was “no binding” in each case. The “MFI as percent of WT staining” value in experiment [5] is 100 % of WT MFI.
